Two molecules from paper PMC1820849, “Identification of a Small TAF Complex and Its Role in the Assembly of TAF-Containing Complexes” (PLoS ONE, 2007) can be followed below.

Holding throughout (test): FRET or BRET; sensitized emission FRET in the nucleus of living HeLa cells transfected with CFP and YFP fusion vectors; mean FRET efficiency of cells above a 5% threshold
Holding throughout (details): partners not purified

One assay concerns the target T1, YFP-TAF9 (UniProt Q16594 1-264).
T1 construct: TAF9 as a YFP fusion; the construct is not described; source: HeLa cells, transfected, in living cells
T1 sequence (looked up): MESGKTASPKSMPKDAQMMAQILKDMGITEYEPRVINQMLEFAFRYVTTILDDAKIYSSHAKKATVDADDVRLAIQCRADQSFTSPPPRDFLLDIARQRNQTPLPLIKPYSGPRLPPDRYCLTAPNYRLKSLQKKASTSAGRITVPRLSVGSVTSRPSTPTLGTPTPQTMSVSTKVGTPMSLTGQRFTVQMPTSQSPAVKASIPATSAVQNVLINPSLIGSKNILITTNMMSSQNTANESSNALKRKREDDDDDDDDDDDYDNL

The target of the next assay is T2, YFP-TAF10 (human, UniProt Q12962 1-218).
T2 construct: human TAF10 as a YFP fusion; vector described in earlier work; source: HeLa cells, transfected, in living cells
T2 sequence (Q12962 whole entry, the tested form may be a part): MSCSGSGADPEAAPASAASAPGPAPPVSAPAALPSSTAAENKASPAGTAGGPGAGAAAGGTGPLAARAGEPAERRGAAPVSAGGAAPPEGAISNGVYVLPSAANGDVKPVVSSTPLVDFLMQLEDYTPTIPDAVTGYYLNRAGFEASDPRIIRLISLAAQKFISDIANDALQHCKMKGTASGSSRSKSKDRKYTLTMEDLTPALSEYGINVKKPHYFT

The target of another assay is T3, YFP-SPT7L (human, UniProt O94864 1-414).
T3 construct: human SPT7L as a YFP fusion; vector described in earlier work; source: HeLa cells, transfected, in living cells
T3 sequence (looked up): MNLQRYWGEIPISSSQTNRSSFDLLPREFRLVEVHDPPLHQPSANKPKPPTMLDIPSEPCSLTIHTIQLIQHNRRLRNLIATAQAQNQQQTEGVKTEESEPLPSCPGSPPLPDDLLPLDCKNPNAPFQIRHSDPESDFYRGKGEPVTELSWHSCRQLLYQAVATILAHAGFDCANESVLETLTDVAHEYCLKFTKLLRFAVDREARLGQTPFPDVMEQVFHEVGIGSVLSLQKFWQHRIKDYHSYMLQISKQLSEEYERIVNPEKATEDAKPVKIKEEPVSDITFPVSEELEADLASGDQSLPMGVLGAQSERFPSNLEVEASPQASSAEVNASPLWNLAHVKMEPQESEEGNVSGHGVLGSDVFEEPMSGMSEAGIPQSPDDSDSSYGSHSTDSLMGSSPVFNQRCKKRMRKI

B1: CFP-TAF6 (natural protein)
chain: not shown
notes: TAF6 as a CFP fusion; the construct is not described; source: HeLa cells, transfected, in living cells
In the case of B1, in the assay with YFP-TAF9, the FRET efficiency is 27.1%.

B2: CFP-TAF8 (natural protein, UniProt Q7Z7C8 1-310, looked up)
chain: MADAAATAGAGGSGTRSGSKQSTNPADNYHLARRRTLQVVVSSLLTEAGFESAEKASVETLTEMLQSYISEIGRSAKSYCEHTARTQPTLSDIVVTLVEMGFNVDTLPAYAKRSQRMVITAPPVTNQPVTPKALTAGQNRPHPPHIPSHFPEFPDPHTYIKTPTYREPVSDYQVLREKAASQRRDVERALTRFMAKTGETQSLFKDDVSTFPLIAARPFTIPYLTALLPSELEMQQMEETDSSEQDEQTDTENLALHISMEDSGAEKENTSVLQQNPSLSGSRNGEENIIDNPYLRPVKKPKIRRKKSLS
notes: TAF8 as a CFP fusion; vector described in earlier work; source: HeLa cells, transfected, in living cells
Regarding B2, the FRET efficiency came to 16.9% with YFP-TAF10 and 15.8% with YFP-SPT7L.
